Test results from publication PMC13458767, “C-terminal lysine residues localise NLRP10 at lipid droplets and govern NLRP10 oligomer formation” (EMBO Reports, 2026).

What was measured:
[1] = molecular target: human NLRP10ΔHD2–tail (aa 4–482), MBP-tagged recombinant protein (human) (UniProt Q86W26); experiment: SEC-MALS; MBP-NLRP10 (4–482) at several concentrations; molecular weights determined; no methods told for the SEC-MALS
[2] = molecular target: the molecule itself; experiment: SEC; Superose 6 Increase 10/300 GL or Superdex 200 Increase 10/300 GL; 25 mM Tris pH 7.5, 300 mM NaCl, 5 mM ß-ME, 5% glycerol; peak 1 (void) and peak 2 collected

| Molecule | stoichiometry N [1] | binding result [2] |
| --- | --- | --- |
| human NLRP10ΔHD2–tail (aa 4–482), MBP-tagged recombinant protein (from UniProt Q86W26 4-482) (domain or fragment) | 2 |  |
| human NLRP10 (aa 4–655), MBP-tev-tagged recombinant protein (natural protein, UniProt Q86W26 4-655, looked up, MBP is followed by a tev site; no cleavage step is described in the methods; also called NLRP10 (4–655); wild-type NLRP10) AKARKPREALLWALSDLEENDFKKLKFYLRDMTLSEGQPPLARGELEGLIPVDLAELLISKYGEKEAVKVVLKGLKVMNLLELVDQLSHICLHDYREVYREHVRCLEEWQEAGVNGRYNQVLLVAKPSSESPESLACPFPEQELESVTVEALFDSGEKPSLAPSLVVLQGSAGTGKTTLARKMVLDWATGTLYPGRFDYVFYVSCKEVVLLLESKLEQLLFWCCGDNQAPVTEILRQPERLLFILDGFDELQRPFEEKLKKRGLSPKESLLHLLIRRHTLPTCSLLITTRPLALRNLEPLLKQARHVHILGFSEEERARYFSSYFTDEKQADRAFDIVQKNDILYKACQVPGICWVVCSWLQGQMERGKVVLETPRNSTDIFMAYVSTFLPPDDDGGCSELSRHRVLRSLCSLAAEGIQHQRFLFEEAELRKHNLDGPRLAAFLSSNDYQLGLAIKKFYSFRHISFQDFFHAMSYLVKEDQSRLGKESRREVQRLLEVKEQEGNDEMTLTMQFLLDISKKDSFSNLELKFCFRISPCLAQDLKHFKEQMESMKHNRTWDLEFSLYEAKIKNLVKGIQMNNVSFKIKHSNEKKSQSQNLFSVKSSLSHGPKEEQKCPSVHGQKEGKDNIAGTQKEASTGKGRGTEETPKNTYI |  | binds |
| Walker A mutant human NLRP10 (aa 4–655 K179A), MBP-tev-tagged recombinant protein (natural protein, UniProt Q86W26 4-655, looked up, NLRP10, human, residues 4-655, Walker A mutant K179A; MBP is followed by a tev site; no cleavage step is described in the methods; also called NLRP10 K179A; K179A mutant) AKARKPREALLWALSDLEENDFKKLKFYLRDMTLSEGQPPLARGELEGLIPVDLAELLISKYGEKEAVKVVLKGLKVMNLLELVDQLSHICLHDYREVYREHVRCLEEWQEAGVNGRYNQVLLVAKPSSESPESLACPFPEQELESVTVEALFDSGEKPSLAPSLVVLQGSAGTGATTLARKMVLDWATGTLYPGRFDYVFYVSCKEVVLLLESKLEQLLFWCCGDNQAPVTEILRQPERLLFILDGFDELQRPFEEKLKKRGLSPKESLLHLLIRRHTLPTCSLLITTRPLALRNLEPLLKQARHVHILGFSEEERARYFSSYFTDEKQADRAFDIVQKNDILYKACQVPGICWVVCSWLQGQMERGKVVLETPRNSTDIFMAYVSTFLPPDDDGGCSELSRHRVLRSLCSLAAEGIQHQRFLFEEAELRKHNLDGPRLAAFLSSNDYQLGLAIKKFYSFRHISFQDFFHAMSYLVKEDQSRLGKESRREVQRLLEVKEQEGNDEMTLTMQFLLDISKKDSFSNLELKFCFRISPCLAQDLKHFKEQMESMKHNRTWDLEFSLYEAKIKNLVKGIQMNNVSFKIKHSNEKKSQSQNLFSVKSSLSHGPKEEQKCPSVHGQKEGKDNIAGTQKEASTGKGRGTEETPKNTYI |  | binds |
